We go through 1 protein from article PMC4137571 (Biomaterials, 2014).

The data set concerns the molecule itself. The experiment in a line: SEC.

Where “and” joins values, the source holds several entries; their conditions need not be identical. Identical values can stand only once.

B1: HEV P^+ (modified protruding (P) protein of hepatitis E virus with C-terminal cysteine-containing peptide) (domain or fragment)
chain: PTPSPAPSRPFSVLRANDVLWLSLTAAEYDQTTYGSSTNPMYVSDTVTLVNVATGAQAVARSLDWSKVTLDGRPLTTIQQYSKTFYVLPLRGKLSFWEAGTTKAGYPYNYNTTASDQILIENAAGHRVAISTYTTSLGAGPTSISAVGVLAPHSALAVLEDTIDYPCDCRGDCFC
In the case of B1, the “stoichiometry N” value is 2 and 4.
